Article doi:10.1101/2020.11.03.367284

Legend:
[1] = molecular target: GSU0105, triheme c-type cytochrome from Geobacter sulfurreducens, with C-terminal Factor Xa-cleavable His-tag (Geobacter sulfurreducens); assay: SAXS
[2] = molecular target: GSU0105, triheme c-type cytochrome from Geobacter sulfurreducens, with C-terminal Factor Xa-cleavable His-tag (Geobacter sulfurreducens); assay: pull-down

Substance	stoichiometry N [1]	Kd [2]
GSU0105, triheme c-type cytochrome from Geobacter sulfurreducens, with C-terminal Factor Xa-cleavable His-tag (natural protein)	4	
PpcD, triheme cytochrome c7 from Geobacter sulfurreducens (natural protein)		< 10 µM
